Laboratory results as given in patent US20250057930A1, “ANAPLASTIC LYMPHOMA KINASE (ALK) CANCER VACCINES AND METHODS OF USE THEREOF” (The Children's Medical Center Corporation, priority 2022, published 2025).

Tested on: H2-Dd expression
Assay: H2-Dd surface expression on MHC-I^low lung tumor escaper cell lines (flow cytometry)
Assay type: cell-based, mouse
Conditions: tumor cells stimulated in vitro with IFN-γ
Protocol: To uncover the mechanisms that would explain this resistance to treatment, ex vivo escaped tumors were isolated from each treatment group. […] To understand whether the observed H2-Dd downregulation was sufficient to impair tumor rejection, tumor cells with high H2-Dd isolated from untreated mice or tumor cells with low H2-Dd isolated from ALK vaccinated mice and treated with ICI were injected. Treatment with ICI induced rejection of tumors with high H2-Dd expression (FIGS. 6D-6E), consistent with previous experiments (FIG. 3E), but not of escaped tumors with low H2-Dd expression (FIGS. 6F-6G). Finally, it was asked whether H2-Dd expression could be restored by Stimulator of IFN genes (STING) signaling that can increase MHC-I expression in other models of lung cancer.
Allophycocyanin (APC)-conjugates H-2D^d-[…] (SEQ ID NO: 22) Dextramer reagents were obtained from Immudex (Immudex, Denmark). […] After washing step, cells were ready to be acquired. When referred, also PD-1 (clone RMP1-30; BV421-PD-1, BD Pharmingen™, USA) expression was evaluated together with dextramer staining, being added together with FITC-CD8. H2-Dd MHC-I expression was measured on relapsed tumors after treatment. […] All cells were acquired in a BD Celesta flow cytometer (BD Bioscience, USA) and analyzed by using the FlowJo software (FlowJo LCC, USA). […]

B1: IFN-γ: Recombinant murine IFN-γ (R&D Systems) (protein, UniProt P01580 23-155, looked up)
Interferon gamma: HGTVIESLESLNNYFNSSGIDVEEKSLFLDIWRNWQKDGDMKILQSQIISFYLRLFEVLKDNQAISNNISVIESHLITTFFSNSKAKKDAFMSIAKFEVNNPQVQRQAFNELIRVVHQLLPESSLRKRKRSRC
With B1 the H2-Dd expression was “H2-Dd expression was restored”.
